Assay results reported in patent publication US20230330257A1 (BEIJING TIANNUOJIANCHENG PHARMA TECH, published 2023).
Residue numbers refer to the chain shown, from its start.

T1: human CD20 (human, UniProt P11836 1-297)
T1 construct: whole, on cells; also called CD20 receptor; CHO-human CD20 (clone 3G6)
T1 sequence (looked up): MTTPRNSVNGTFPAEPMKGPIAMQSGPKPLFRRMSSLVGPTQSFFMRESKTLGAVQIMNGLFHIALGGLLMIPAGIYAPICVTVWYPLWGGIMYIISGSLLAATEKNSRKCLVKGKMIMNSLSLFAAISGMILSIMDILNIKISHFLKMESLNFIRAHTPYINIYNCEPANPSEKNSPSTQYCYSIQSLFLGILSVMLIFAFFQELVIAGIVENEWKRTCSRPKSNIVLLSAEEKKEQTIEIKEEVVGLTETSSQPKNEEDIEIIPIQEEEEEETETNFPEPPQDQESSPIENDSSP

T2: recombinant human CD3εγ-Fc heterodimer (human)
T2 construct: Extracellular regions of CD3γ and CD3ε as Fc hole/knob heterodimer; also called human CD3εγ protein; recombinant human CD3γ/ε antigen
T2 chain 1: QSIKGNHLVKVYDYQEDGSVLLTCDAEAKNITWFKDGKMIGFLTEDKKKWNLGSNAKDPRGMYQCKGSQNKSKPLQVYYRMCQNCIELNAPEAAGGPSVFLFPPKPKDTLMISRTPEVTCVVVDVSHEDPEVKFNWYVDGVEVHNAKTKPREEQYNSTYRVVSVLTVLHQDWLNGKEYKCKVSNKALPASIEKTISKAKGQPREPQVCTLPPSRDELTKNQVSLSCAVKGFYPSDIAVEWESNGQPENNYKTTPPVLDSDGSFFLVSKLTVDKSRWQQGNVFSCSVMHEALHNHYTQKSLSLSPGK
T2 chain 2: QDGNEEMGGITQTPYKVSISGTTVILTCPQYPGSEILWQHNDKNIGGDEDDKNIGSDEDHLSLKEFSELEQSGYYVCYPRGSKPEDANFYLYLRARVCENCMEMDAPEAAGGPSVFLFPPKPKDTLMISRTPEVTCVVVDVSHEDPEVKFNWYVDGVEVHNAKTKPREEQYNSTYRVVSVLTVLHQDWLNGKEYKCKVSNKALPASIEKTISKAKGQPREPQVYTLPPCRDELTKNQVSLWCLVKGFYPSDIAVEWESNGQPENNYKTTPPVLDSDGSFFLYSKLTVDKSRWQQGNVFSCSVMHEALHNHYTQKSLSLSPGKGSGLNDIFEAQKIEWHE

B1: Mab001 (antibody, V domains shown)
VH: QVQLVQSGAEVKKPGSSVKVSCKASGYTFTSYNMHWVRQAPGQGLEWMGAIYPGNGDTSYNQKFQGRVTLTADKSSSTAYMELSSLRSEDTAVYYCARSTYYGGDWYFNVWGQGTLVTVSS
VL: EIVLTQSPGTLSLSPGERATLSCRASSSVSYIHWFQQKPGQAPRPLIYATSNLASGIPDRFSGSGSGTDYTLTISRLEPEDFAVYYCQQWTSNPPTFGQGTKLEIK
notes: also called humanized Mab001 antibody; humanized anti-CD20 antibody
B2: Mab002 (antibody, V domains shown)
VH: B1 VH with N109D, V110Y
VL: B1 VL
notes: also called humanized Mab002 antibody; humanized anti-CD20 antibody
B3: aCD3-hVH9/VL2 (antibody, human IgG4, V domains shown)
VH: EVQLVESGGGLVQPGGSLRLSCAASGFTFNTYAMNWVRKAPGKGLEWVGRIRSKYNNYATYYADSVKDRFTISRDDSKNSLYLQMNSLKTEDTAVYYCVRHGNFGNSYVSWFAYWGQGTLVTVSS
VL: QAVVTQEPSLTVSPGGTVTLTCRSSTGAVTTSNYANWVQEKPGQAPRGLIGGTNKRAPWTPARFSGSLLGGKAALTLSGAQPEDEAEYYCALWYSNLWVFGGGTKLTVL
notes: Expressed with an antibody lambda light chain constant region and human IgG4 heavy chain constant regions CH1-CH3; also called humanized anti-CD3 antibody hVH9/VL2
B4: aCD3-hVH1/VL5 (antibody, human IgG4, V domains shown)
VH: B3 VH with K39Q, G49S, S80T
VL: B3 VL with L77I, S78T, P82A, A91V
notes: Expressed with an antibody lambda light chain constant region and human IgG4 heavy chain constant regions CH1-CH3; also called humanized anti-CD3 antibody hVH1/VL5
B5: aCD3-hVH9/VL1 (antibody, human IgG4, V domains shown)
VH: B3 VH
VL: B3 VL with E40Q
notes: Expressed with an antibody lambda light chain constant region and human IgG4 heavy chain constant regions CH1-CH3; also called humanized anti-CD3 antibody hVH9/VL1
B6: aCD3-hVH9/VL5 (antibody, human IgG4, V domains shown)
VH: B3 VH
VL: B3 VL with L77I, S78T, P82A, A91V
notes: Expressed with an antibody lambda light chain constant region and human IgG4 heavy chain constant regions CH1-CH3; also called humanized anti-CD3 antibody hVH9/VL5
B7: aCD3-hVH8/VL1 (antibody, human IgG4, V domains shown)
VH: B3 VH with V99A
VL: B3 VL with E40Q
notes: Expressed with an antibody lambda light chain constant region and human IgG4 heavy chain constant regions CH1-CH3; also called humanized anti-CD3 antibody hVH8/VL1
B8: aCD3-hVH8/VL5 (antibody, human IgG4, V domains shown)
VH: B3 VH with V99A
VL: B3 VL with L77I, S78T, P82A, A91V
notes: Expressed with an antibody lambda light chain constant region and human IgG4 heavy chain constant regions CH1-CH3; also called aCD3-hVH8/VLS (so in the source)
B9: aCD3-hVH9/VL3 (antibody, human IgG4, V domains shown)
VH: B3 VH
VL: B3 VL with Q1E, R23E, T26D, R56E
notes: Expressed with an antibody lambda light chain constant region and human IgG4 heavy chain constant regions CH1-CH3; also called humanized anti-CD3 antibody hVH9/VL3
B10: Mab005 (antibody, V domains shown)
VH: EVQLLESGGGLVQPGGSLRLSCAASGFTFNDYAMHWVRQAPGKGLEWVSTISWNSGSIGYADSVKGRFTISRDNSKNTLYLQMNSLRAEDTAVYYCAKDIQYGNYYYGMDVWGQGTLVTVSS
VL: EIVLTQSPGTLSLSPGERATLSCRASQSVSSYLAWYQQKPGQAPRLLIYDASNRATGIPDRFSGSGSGTDFTLTISRLEPEDFAVYYCQQRSNWPITFGQGTKLEIK
notes: also called humanized Mab005 antibody; humanized anti-CD20 antibody
B11: Mab004 (antibody, V domains shown)
VH: B10 VH with S75A, N77K
VL: B10 VL
notes: also called humanized Mab004 antibody; humanized anti-CD20 antibody
B12: Mab007 (antibody, V domains shown)
VH: B10 VH with L11V, V111Y
VL: B10 VL
notes: also called humanized Mab007 antibody; humanized anti-CD20 antibody
B13: Mab006 (antibody, V domains shown)
VH: B10 VH with L11V
VL: B10 VL
notes: also called humanized Mab006 antibody; humanized anti-CD20 antibody

target: T1, human CD20; experiment: flow cytometry on Raji cells, Alexa Fluor 647 goat anti-human IgG Fc
Protocol: (§1) A lymphoma cell line Raji and Daudi cells in the logarithmic growth phase were taken, 200 μg/mL mouse IgG (Jackson ImmunoResearch) was added, and the mixture was blocked for 30 min. 5×10⁴ cells and 50 μL, of gradient-diluted antibody (the initial concentration of 200 nM, 5-fold dilution, a total of 8 gradients) were added to each well of a 96-well U-shaped plate, and incubated on ice for 45 min. After the cells were washed, 50 μL, of Alexa Fluro647-labelled goat anti-human IgG Fc (1: 300 dilution) was added to each well, and the mixture was incubated on ice for 45 min. 60 μL, of PI (Sigma, P4170) was added to each well, and the mixture was incubated for 5 min and detected by using a flow cytometer (iQue Screener).

Binder | binding result
B1 | binds
B2 | binds

Target: T2, recombinant human CD3εγ-Fc heterodimer
Experiment: ELISA, human CD3εγ protein coated on the plate, HRP goat anti-human IgG Fc, A450
Protocol: Human CD3εγ protein was coated onto a plate and placed at 4° C. overnight.

Binder | EC50 (read off the curve) [pM]
B3 | ~600
B4 | ~600
B5 | ~600
B6 | ~500
B7 | ~600
B8 | ~600
B9 | ~600

target: T1, human CD20; experiment: flow cytometry on Daudi cells, Alexa Fluor 647 goat anti-human IgG Fc
Protocol: as §1

Binder | EC50 (read off the curve) [pM]
B10 | ~10000
B11 | ~10000
B12 | ~10000
B13 | ~10000
